How the values were obtained:
SAXS = target: the molecule itself; assay: SAXS
SEC-MALS = target: the molecule itself; assay: SEC-MALS

B1: XRCC4 1-140 (domain or fragment, human, UniProt Q13426 1-140, looked up)
chain: MERKISRIHLVSEPSITHFLQVSWEKTLESGFVITLTDGHSAWTGTVSESEISQEADDMAMEKGKYVGELRKALLSGAGPADVYTFNFSKESCYFFFEKNLKDVSFRLGSFNLEKVENPAEVIRELICYCLDTIAENQAK
stoichiometry N (SAXS): 2

B2: XRCC4 1-161 (domain or fragment, human, UniProt Q13426 1-161, looked up)
chain: MERKISRIHLVSEPSITHFLQVSWEKTLESGFVITLTDGHSAWTGTVSESEISQEADDMAMEKGKYVGELRKALLSGAGPADVYTFNFSKESCYFFFEKNLKDVSFRLGSFNLEKVENPAEVIRELICYCLDTIAENQAKNEHLQKENERLLRDWNDVQGR
stoichiometry N (SAXS): 2

B3: full-length XRCC4 (natural protein, human, UniProt Q13426 1-336, looked up)
chain: MERKISRIHLVSEPSITHFLQVSWEKTLESGFVITLTDGHSAWTGTVSESEISQEADDMAMEKGKYVGELRKALLSGAGPADVYTFNFSKESCYFFFEKNLKDVSFRLGSFNLEKVENPAEVIRELICYCLDTIAENQAKNEHLQKENERLLRDWNDVQGRFEKCVSAKEALETDLYKRFILVLNEKKTKIRSLHNKLLNAAQEREKDIKQEGETAICSEMTADRDPVYDESTDEESENQTDLSGLASAAVSKDDSIISSLDVTDIAPSRKRRQRMQRNLGTEPKMAPQENQLQEKENSRPDSSLPETSKKEHISAENMSLETLRNSSPEDLFDEI
stoichiometry N (SEC-MALS): 4
